Like-named read-outs stand apart in the source and are kept apart here.
Columns and labels:
Conditions in all cases: remark: other sources report otherwise
[1] = target: SARS-COV2-S1 RBD (mouse IgG2Fc tag) (SARS-CoV-2), P0DTC2
[2] = target: T1, CV S-protein construct 6 trimer TP31001F (SARS-CoV-2), P0DTC2; assay: SPR
[3] = target: SARS-COV2-S1 RBD (mouse IgG2Fc tag) (SARS-CoV-2), P0DTC2; assay: FACS, S1 RBD-mFc on Vero E6 (ACE2)
[4] = target: SARS-COV2-S1 RBD (mouse IgG2Fc tag) (SARS-CoV-2), P0DTC2; assay: column not explained; likely FACS, S1 RBD on Vero E6
[5] = target: SARS-COV2-S1 RBD (mouse IgG2Fc tag) (SARS-CoV-2), P0DTC2; assay: FACS, blocks S1 RBD-mFc binding to ACE2 on Vero E6
[6] = target: T1, CV S-protein construct 6 trimer …; assay: SPR; remark: listed apart in the source
[7] = target: SARS-COV2-S1 RBD (mouse IgG2Fc tag) (SARS-CoV-2), P0DTC2; remark: listed apart in the source

B1: variant 5-50 (Fc fusion)
VHH: EVQLVESGGGLVQPGGSLRLSCAASGFSLDYYGMGWFRQAPGKEREFVAAITSGGTPHYADSVKGRFTISADNSKNTAYLQMNSLKPEDTAVYYCASAYNPGIGYDWGQGTLVTVSS
IC50 [1]: 1.61 nM
Kd [2]: 3.8 nM

B2: variant 6-3 (Fc fusion)
VHH: EVQLVESGGGLVQPGGSLRLSCAASGFTFSPSWMGWFRQAPGKEREFVATINEYGGRNYADSVKGRFTISADNSKNTAYLQMNSLKPEDTAVYYCARVDRDFDYWGQGTLVTVSS
Competition Factor [3]: 9.51
MFI Fold Decrease [4]: 9.51 fold
IC50 [5]: 0.74 nM

B3: variant 6-81 (Fc fusion)
VHH: EVQLVESGGGLVQPGGSLRLSCAASGFIGNYHAMGWFRQAPGKEREFVAAVTWSGGTTNYADSVKGRFTISADNSKNTAYLQMNSLKPEDTAVYYCAREGYYYDSSGYPYYFDYWGQGTLVTVSS
Kd [6]: 3.9 nM
Kd [2]: 3.9 nM
IC50 [7]: 1.38 nM

— US20210355194A1
